Target: factor X (Homo sapiens, UniProt P00742)
Test: factor X activation in complete intrinsic Tenase system (IXa, Ca2+, phospholipid, VIIIa)
Type: biochemical
Parameters: Normal human plasma factor IX (IXNP) and factor X were isolated as described in Bajaj and Birktoft; from tissue; host or cells: human plasma (factor X); factor VIII obtained from Dr. Leon Hoyer, American Red Cross
Settings: 70 pM VIIIa, 0.5 nM IXa, 15 nM X, phospholipid present
Description: The ability of each activated mutant to activate factor X in the presence and absence of phospholipid and factor VIIIa was determined as follows. The activation was carried out at 37° C. in a 50 μl reaction volume, in TBS/BSA pH 7.4, for various time periods. At the end of the incubation time period, each reaction mixture received 1 μl of 0.5 M EDTA to stop further generation of factor Xa. A 40 μL aliquot was then added to 0.1 ml quartz cuvette containing S-2222 in 75 μL of TBS/BSA, pH 7.4. The final concentration of S-2222 was 100 μM. The p-nitroaniline release was measured continuously (ΔA405/min) for up to 20 min (Sabharwal et al., 1995 supra; Sabharwal et al., 1997, supra). Factor Xa generated was calculated from a standard curve constructed using factor Xa prepared from insolubilized Russell's viper venom.
Factor X activation measurements were made under four experimental regimes. In one, Ca^2+ and phospholipid were present. In this system activation was carried out for 5–15 minutes and the concentration of each IXa protein was 20 nM, phospholipid was 25 μM, and factor X was 100 nM. In the second regime, Ca^2+, phospholipid and factor VIIIa were present. […] In the third regime, only Ca^2+ was present. Here, activation was carried out for 2–20 min and concentration of each IXa protein was 400 nM and factor X was 1 μM. Finally, in the fourth regime, Ca^2+ and VIIIa were present. Here, activation was carried out for 15–120 sec and the concentration of each IXa protein was 2 μM, VIIIa was 14 nM, and factor X was 400 nM.
In all of the above factor X activation experiments, the incubation times chosen were those in which the factor Xa generated was always less than 10 nM. This precautionary measure was taken to prevent activation of factor X by the generated factor Xa (see, e.g., Link. and Castellino, 1982, Arch Biochem. Biophys. 215, 215–221). Further, in those incubation mixtures which contained […], control experiments were also performed in which factor VIIIa was omitted. […] In the presence of factor VIIIa, 10 μM phospholipid was used based upon previous observations (Mathur et al., 1997, supra; van Dieijen et al., 1981, J. Biol. Chem. 256, 3433–3442). The concentrations of factor X selected for each set of reaction conditions are those which are below or at the Km values (van Dieijen et al., supra; Fay and Koshibu, 1998, J Biol. Chem. 273, 19049–19054). In this region of the Michaelis-Menton curve, the rate of formation of factor Xa is proportional to the substrate factor X and therefore to the affinity of the factor IXa enzyme for factor X.
Next, the activation of factor X in a complete intrinsic Tenase system (IXa, Ca^2+, phospholipid, VIIIa) was studied.

Sequence of factor X (P00742 183-488 limits assumed): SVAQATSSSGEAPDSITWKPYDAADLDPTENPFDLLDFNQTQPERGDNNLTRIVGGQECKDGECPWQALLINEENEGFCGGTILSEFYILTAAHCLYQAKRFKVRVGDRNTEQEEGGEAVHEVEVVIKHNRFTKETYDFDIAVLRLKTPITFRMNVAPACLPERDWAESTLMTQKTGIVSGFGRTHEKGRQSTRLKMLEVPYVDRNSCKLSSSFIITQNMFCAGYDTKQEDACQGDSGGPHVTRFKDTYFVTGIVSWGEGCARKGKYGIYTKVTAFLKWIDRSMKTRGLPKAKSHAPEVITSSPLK
Sequence of factor X (P00742 41-179 limits assumed): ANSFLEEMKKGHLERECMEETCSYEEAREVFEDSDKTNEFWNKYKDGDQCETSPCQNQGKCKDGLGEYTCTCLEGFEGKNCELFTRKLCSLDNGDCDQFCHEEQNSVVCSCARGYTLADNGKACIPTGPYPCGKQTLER
Sequence of factor X (P00451 20-759 partner limits assumed): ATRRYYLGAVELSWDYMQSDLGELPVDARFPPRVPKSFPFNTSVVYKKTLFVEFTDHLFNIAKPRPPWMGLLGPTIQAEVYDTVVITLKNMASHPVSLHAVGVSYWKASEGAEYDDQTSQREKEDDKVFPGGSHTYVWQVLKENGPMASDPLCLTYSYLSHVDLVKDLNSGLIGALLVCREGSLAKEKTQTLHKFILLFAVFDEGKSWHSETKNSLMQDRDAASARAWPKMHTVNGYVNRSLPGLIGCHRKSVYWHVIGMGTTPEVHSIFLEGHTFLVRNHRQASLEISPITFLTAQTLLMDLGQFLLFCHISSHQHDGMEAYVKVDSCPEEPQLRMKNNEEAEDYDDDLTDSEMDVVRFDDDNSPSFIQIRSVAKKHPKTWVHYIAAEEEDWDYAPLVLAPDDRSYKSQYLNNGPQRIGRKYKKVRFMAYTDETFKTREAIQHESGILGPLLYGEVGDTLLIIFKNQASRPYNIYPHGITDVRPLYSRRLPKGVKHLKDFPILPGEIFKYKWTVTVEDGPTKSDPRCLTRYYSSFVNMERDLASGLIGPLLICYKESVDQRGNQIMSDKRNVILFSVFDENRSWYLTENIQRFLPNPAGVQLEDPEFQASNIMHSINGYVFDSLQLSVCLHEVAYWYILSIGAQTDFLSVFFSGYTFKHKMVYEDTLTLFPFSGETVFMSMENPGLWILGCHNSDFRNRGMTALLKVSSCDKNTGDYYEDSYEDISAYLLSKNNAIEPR
Sequence of factor X (P00451 1668-2351 partner limits assumed): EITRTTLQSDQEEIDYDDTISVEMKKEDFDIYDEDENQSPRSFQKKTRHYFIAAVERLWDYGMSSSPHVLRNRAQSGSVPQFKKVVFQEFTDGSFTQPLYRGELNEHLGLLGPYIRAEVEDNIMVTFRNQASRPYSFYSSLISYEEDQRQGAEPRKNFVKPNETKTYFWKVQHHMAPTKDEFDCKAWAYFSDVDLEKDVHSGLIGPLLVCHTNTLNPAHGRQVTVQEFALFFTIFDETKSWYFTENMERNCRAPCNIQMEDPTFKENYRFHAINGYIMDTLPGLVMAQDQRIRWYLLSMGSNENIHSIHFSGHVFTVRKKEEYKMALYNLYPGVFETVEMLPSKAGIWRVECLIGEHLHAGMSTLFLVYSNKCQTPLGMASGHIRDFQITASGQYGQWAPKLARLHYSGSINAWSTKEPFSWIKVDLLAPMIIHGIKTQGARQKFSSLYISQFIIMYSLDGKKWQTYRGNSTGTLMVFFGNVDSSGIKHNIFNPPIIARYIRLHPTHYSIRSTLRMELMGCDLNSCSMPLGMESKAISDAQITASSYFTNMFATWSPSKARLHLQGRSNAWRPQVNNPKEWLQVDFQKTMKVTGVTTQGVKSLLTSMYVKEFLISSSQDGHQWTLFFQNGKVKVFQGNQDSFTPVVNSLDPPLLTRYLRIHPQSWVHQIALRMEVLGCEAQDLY

IXaV331A: activated factor IX mutant V331A
X-activation rate, PL-plus system: 0.55 ± 0.04 nM/min
